Test system: Escherichia coli TOP10
Experiment: shrunken log2 fold change of peptide-encoding DNA abundance (4.5 h post-induction vs induction); higher = less antimicrobial activity (less host growth inhibition)
Settings: time post-induction: 4.5 h; library: site-saturation at positions 5, 18, 19, 20
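Further: peptides expressed intracellularly from a pBAD plasmid library in pooled LB shake-flask culture, induced with 0.3% L-arabinose, DNA abundance read by NGS, three biological replicates, DESeq2 with apeglm shrinkage.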

Sequence	shrunken log2 fold change
RRIRGRPPRLPRPRPRPQWTPRP	0.319
RRIRTRPPRLPRPRPRPGEWPRP	0.0179
RRIRHRPPRLPRPRPRPHNYPRP	-0.296
RRIRTRPPRLPRPRPRPMAPPRP	0.294
RRIRTRPPRLPRPRPRPFYAPRP	-0.301
RRIRNRPPRLPRPRPRPSREPRP	-0.103
RRIRHRPPRLPRPRPRPPYFPRP	-0.366
RRIRFRPPRLPRPRPRPMKCPRP	-0.695
RRIRHRPPRLPRPRPRPKLRPRP	-0.382
RRIRWRPPRLPRPRPRPYAGPRP	0.0399
RRIRLRPPRLPRPRPRPVVTPRP	-0.0571
RRIRKRPPRLPRPRPRPAWYPRP	0.205
RRIRERPPRLPRPRPRPEHLPRP	0.0163
RRIRHRPPRLPRPRPRPYTDPRP	-0.000921
RRIRNRPPRLPRPRPRPITIPRP	-0.366
RRIRWRPPRLPRPRPRPRFKPRP	0.0187
RRIRNRPPRLPRPRPRPTINPRP	-0.515
RRIRIRPPRLPRPRPRPHKGPRP	-0.145
RRIRLRPPRLPRPRPRPENSPRP	0.000683
RRIRWRPPRLPRPRPRPVGNPRP	0.0858
RRIRSRPPRLPRPRPRPVSSPRP	0.0316
RRIRCRPPRLPRPRPRPTATPRP	0.299
RRIRLRPPRLPRPRPRPPCAPRP	0.457
RRIRLRPPRLPRPRPRPKDMPRP	-0.0444
RRIRHRPPRLPRPRPRPFQRPRP	0.0038

Sequence	shrunken log2 fold change
RRIRNRPPRLPRPRPRPEGSPRP	-0.0385
RRIRQRPPRLPRPRPRPHIMPRP	-0.669
RRIRRRPPRLPRPRPRPLGSPRP	0.0898
RRIRFRPPRLPRPRPRPCPQPRP	-0.697
RRIRERPPRLPRPRPRPSKPPRP	0.0303
RRIRCRPPRLPRPRPRPGMCPRP	0.125
RRIRLRPPRLPRPRPRPDMMPRP	-0.295
RRIRWRPPRLPRPRPRPILPPRP	-0.0759
RRIRTRPPRLPRPRPRPVSVPRP	-0.0287
RRIRLRPPRLPRPRPRPMVGPRP	-0.135
RRIRRRPPRLPRPRPRPIQKPRP	-0.218
RRIRNRPPRLPRPRPRPDVQPRP	-0.13
RRIRKRPPRLPRPRPRPWFVPRP	-0.036
RRIRTRPPRLPRPRPRPCNNPRP	-0.276
RRIRSRPPRLPRPRPRPVCWPRP	0.714
RRIRLRPPRLPRPRPRPCNKPRP	-0.686
RRIRGRPPRLPRPRPRPTKSPRP	0.583
RRIRNRPPRLPRPRPRPALSPRP	0.0962
RRIRFRPPRLPRPRPRPFTKPRP	-0.411
RRIRDRPPRLPRPRPRPPCSPRP	0.126
RRIRDRPPRLPRPRPRPIMTPRP	0.107
RRIRKRPPRLPRPRPRPPHYPRP	0.176
RRIRPRPPRLPRPRPRPLEQPRP	0.169
RRIRIRPPRLPRPRPRPFMCPRP	-0.103
RRIRCRPPRLPRPRPRPRHIPRP	-0.28

Sequence	shrunken log2 fold change
RRIRRRPPRLPRPRPRPDWYPRP	0.0693
RRIRSRPPRLPRPRPRPERNPRP	-0.098
RRIRRRPPRLPRPRPRPDFYPRP	0.159
RRIRARPPRLPRPRPRPKPYPRP	0.0727
RRIRFRPPRLPRPRPRPWVYPRP	-0.327
RRIRWRPPRLPRPRPRPMCIPRP	-0.102
RRIRFRPPRLPRPRPRPGIWPRP	0.125
RRIRIRPPRLPRPRPRPAKTPRP	0.0509
RRIRLRPPRLPRPRPRPAMCPRP	0.059
RRIRARPPRLPRPRPRPPKYPRP	-0.109
RRIRARPPRLPRPRPRPNWNPRP	-0.0314
RRIRMRPPRLPRPRPRPTQIPRP	0.386
RRIRCRPPRLPRPRPRPICLPRP	-0.127
RRIRHRPPRLPRPRPRPLQQPRP	0.0446
RRIRRRPPRLPRPRPRPFWQPRP	0.0221
RRIRDRPPRLPRPRPRPNYPPRP	0.0151
RRIRERPPRLPRPRPRPLMQPRP	0.0114
RRIRKRPPRLPRPRPRPQCVPRP	0.117
RRIRRRPPRLPRPRPRPMNRPRP	-0.321
RRIRIRPPRLPRPRPRPMQAPRP	-0.00238
RRIRSRPPRLPRPRPRPVNPPRP	-0.118
RRIRNRPPRLPRPRPRPRKCPRP	-0.0149
RRIRERPPRLPRPRPRPFFLPRP	-0.384
RRIRMRPPRLPRPRPRPNTTPRP	0.191
RRIRLRPPRLPRPRPRPHMHPRP	-0.578

Sequence	shrunken log2 fold change
RRIRMRPPRLPRPRPRPKWYPRP	-0.171
RRIRPRPPRLPRPRPRPYFQPRP	-0.593
RRIRNRPPRLPRPRPRPRHTPRP	-0.096
RRIRPRPPRLPRPRPRPHCNPRP	-0.52
RRIRYRPPRLPRPRPRPLMLPRP	-1.32
RRIRHRPPRLPRPRPRPEQQPRP	0.096
RRIRIRPPRLPRPRPRPHAIPRP	-0.21
RRIRLRPPRLPRPRPRPWHTPRP	-0.314
RRIRDRPPRLPRPRPRPCMFPRP	-0.00227
RRIRWRPPRLPRPRPRPTAWPRP	2
RRIRRRPPRLPRPRPRPFISPRP	0.0236
RRIRRRPPRLPRPRPRPCYTPRP	-0.112
RRIRHRPPRLPRPRPRPTACPRP	0.074
RRIRERPPRLPRPRPRPHPFPRP	-0.235
RRIRSRPPRLPRPRPRPCRPPRP	-0.584
RRIRTRPPRLPRPRPRPKQEPRP	-0.0429
RRIRLRPPRLPRPRPRPLIAPRP	-0.498
RRIRNRPPRLPRPRPRPGLWPRP	0.737
RRIRTRPPRLPRPRPRPEPWPRP	0.291
RRIRHRPPRLPRPRPRPGFVPRP	0.607
RRIRKRPPRLPRPRPRPSDYPRP	-0.08
RRIRMRPPRLPRPRPRPEDIPRP	-0.0245
RRIRHRPPRLPRPRPRPGMGPRP	0.0516
RRIRHRPPRLPRPRPRPMWDPRP	-0.0134
RRIRIRPPRLPRPRPRPYRGPRP	-0.155

Sequence	shrunken log2 fold change
RRIRQRPPRLPRPRPRPLAFPRP	-0.232
RRIRFRPPRLPRPRPRPPFCPRP	0.0782
RRIRPRPPRLPRPRPRPIKYPRP	0.32
RRIRLRPPRLPRPRPRPGFIPRP	0.452
RRIRFRPPRLPRPRPRPTMKPRP	-0.178
RRIRDRPPRLPRPRPRPPNCPRP	-0.0514
RRIRQRPPRLPRPRPRPKQKPRP	-0.0585
RRIRQRPPRLPRPRPRPNVEPRP	-0.0222
RRIRYRPPRLPRPRPRPGVCPRP	-0.0493
RRIRCRPPRLPRPRPRPIHEPRP	-0.115
RRIRYRPPRLPRPRPRPHISPRP	-0.317
RRIRRRPPRLPRPRPRPVYRPRP	-0.235
RRIRTRPPRLPRPRPRPTPVPRP	0.313
RRIRSRPPRLPRPRPRPRSLPRP	-0.0256
RRIRERPPRLPRPRPRPGWVPRP	0.381
RRIRSRPPRLPRPRPRPPLEPRP	0.367
RRIRVRPPRLPRPRPRPSHPPRP	-0.852
RRIRDRPPRLPRPRPRPQNYPRP	-0.589
RRIRFRPPRLPRPRPRPGQCPRP	-0.114
RRIRCRPPRLPRPRPRPWHRPRP	0.0363
RRIRCRPPRLPRPRPRPYHDPRP	-1.05
RRIRERPPRLPRPRPRPMSYPRP	-0.00931
RRIRPRPPRLPRPRPRPDLDPRP	0.114
RRIRLRPPRLPRPRPRPDGVPRP	-0.0786
RRIRTRPPRLPRPRPRPPMRPRP	0.957
